{
  "source": "patent US9988424",
  "about": "(DUKE UNIVERSITY, dated 2018)",
  "binders": {"B1": {"name": "697D (antibody, V domains shown)", "VH": "QVQLVQSGAEVKKPGSSVKVSCKASGGNFNTYTISWVRQAPGQGLEWMGRIIPIFGIVNPAQKFPGRVTINVDKSTNTAYMELSSLRSEDTAVYYCATSGVGLHFGYFDYWGQGTQVTVSS", "VL": "QSVLTQPPSVSGAPGQRVTISCTGSSSNIGAHYDVHWYQQLPGTAPKLLIYGNSNRPSGVPDRFSGSKSGTSASLAITGLQAEDEADYYCQSYDSSLSGYVFGTGTKVTVL", "notes": "also called mAb 697D; V2 conformational mAb 697D"}, "B2": {"name": "697D reverted unmutated ancestor antibody (antibody, V domains shown)", "VH": "QVQLVQSGAEVKKPGSSVKVSCKASGGTFSSYTISWVRQAPGQGLEWMGRIIPILGIANYAQKFQGRVTITADKSTSTAYMELSSLRSEDTAVYYCATSGVGLHFGYFDYWGQGTLVTVSS", "VL": "B1 VL with H32G", "notes": "also called 697D RUA"}, "B3": {"name": "CH59 (antibody, V domains shown)", "VH": "EVQLVESGGGLVQPGRSLRLSCAASGFTFDDGAMHWVRQAPGKGLEWVSGISWNSNIIAYADSVKGRFTISRDNAKNSLYLEMNSLRVEDTALYYCAKDSPRGELPLNYWGQGTLVTVSS", "VL": "SYELTQPPSVSVSPGQTARITCSGDALPKNYAYWYQQKSGQAPVLVIYEDSKRPSGIPERFSGSSSGTMATLTISGAQVEDEADYYCYSTDSSGNHRVFGGGTKLTVL", "notes": "also called mAb CH59"}},
  "key": {"[1]": {"molecular_target": "T1, gp70 B.CaseA2 V1/V2 (HIV-1 V1V2 on murine leukemia virus gp70)", "T1 construct": "also called B.gp70CaseA2 V1/V2; gp70 B.CaseAV1V2", "T1 chain": "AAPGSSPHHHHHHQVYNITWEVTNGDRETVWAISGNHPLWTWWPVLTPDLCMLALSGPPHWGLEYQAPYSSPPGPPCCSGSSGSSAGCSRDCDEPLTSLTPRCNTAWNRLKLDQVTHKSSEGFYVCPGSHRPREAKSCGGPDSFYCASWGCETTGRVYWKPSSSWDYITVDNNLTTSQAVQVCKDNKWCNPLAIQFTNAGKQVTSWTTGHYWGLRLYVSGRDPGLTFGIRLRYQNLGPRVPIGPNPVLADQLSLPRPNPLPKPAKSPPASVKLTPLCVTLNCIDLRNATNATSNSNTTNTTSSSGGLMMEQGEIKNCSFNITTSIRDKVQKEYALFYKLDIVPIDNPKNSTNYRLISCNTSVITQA", "test": "ELISA"}, "[2]": {"molecular_target": "B. 681-7 gp140C", "test": "ELISA, OD405"}, "[3]": {"molecular_target": "T2, B.62357 140C", "T2 construct": "also called B.62357 gp140C", "test": "ELISA, OD405"}, "[4]": {"molecular_target": "T3, B.Case A2 V1/V2 Tags", "T3 Env construct": "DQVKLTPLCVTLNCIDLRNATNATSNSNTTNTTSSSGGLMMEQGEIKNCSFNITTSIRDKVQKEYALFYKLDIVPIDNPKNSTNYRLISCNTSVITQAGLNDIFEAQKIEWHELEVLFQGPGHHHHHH", "test": "ELISA, OD405"}, "[5]": {"molecular_target": "B.040 gp140C", "test": "ELISA, OD405"}, "[6]": {"molecular_target": "B.63521 gp140C", "test": "ELISA, OD405"}, "[7]": {"molecular_target": "T4, G.con gp140CF", "T4 construct": "also called G.con.env03 gp140CF", "test": "ELISA, OD405"}, "[8]": {"molecular_target": "T5, SIV CPZ US-1 gp140CF (SIVcpz)", "T5 construct": "also called US-1 SIVCPZ gp140CF", "T5 chain": "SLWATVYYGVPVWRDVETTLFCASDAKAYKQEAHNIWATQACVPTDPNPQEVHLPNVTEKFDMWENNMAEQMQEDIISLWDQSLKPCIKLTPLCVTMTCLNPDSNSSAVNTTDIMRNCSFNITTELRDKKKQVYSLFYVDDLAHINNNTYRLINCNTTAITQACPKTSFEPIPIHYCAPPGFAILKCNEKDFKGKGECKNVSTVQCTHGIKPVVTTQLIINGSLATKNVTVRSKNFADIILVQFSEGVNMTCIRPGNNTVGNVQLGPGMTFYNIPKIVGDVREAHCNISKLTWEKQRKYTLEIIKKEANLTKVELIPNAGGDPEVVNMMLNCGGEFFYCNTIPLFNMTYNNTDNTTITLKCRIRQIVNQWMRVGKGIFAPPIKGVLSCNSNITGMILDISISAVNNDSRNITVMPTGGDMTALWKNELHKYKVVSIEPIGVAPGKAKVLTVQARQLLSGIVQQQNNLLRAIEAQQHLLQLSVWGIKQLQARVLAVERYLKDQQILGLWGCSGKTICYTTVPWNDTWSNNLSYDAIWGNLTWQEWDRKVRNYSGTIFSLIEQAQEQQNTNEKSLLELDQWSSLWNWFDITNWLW", "test": "ELISA, OD405"}, "[9]": {"molecular_target": "T6, J08 A.92RW020V1V2/N156QN160Q (HIV-1)", "T6 construct": "also called J08 A.92RW020VV1V2/N156QN160Q", "test": "ELISA, mAb 0.001-100 ug/ml on coated V1V2 scaffold, OD450"}, "[10]": {"molecular_target": "T7, gp70 B.HXB2/BALV1V2 (murine leukemia virus; HIV-1)", "T7 chain": "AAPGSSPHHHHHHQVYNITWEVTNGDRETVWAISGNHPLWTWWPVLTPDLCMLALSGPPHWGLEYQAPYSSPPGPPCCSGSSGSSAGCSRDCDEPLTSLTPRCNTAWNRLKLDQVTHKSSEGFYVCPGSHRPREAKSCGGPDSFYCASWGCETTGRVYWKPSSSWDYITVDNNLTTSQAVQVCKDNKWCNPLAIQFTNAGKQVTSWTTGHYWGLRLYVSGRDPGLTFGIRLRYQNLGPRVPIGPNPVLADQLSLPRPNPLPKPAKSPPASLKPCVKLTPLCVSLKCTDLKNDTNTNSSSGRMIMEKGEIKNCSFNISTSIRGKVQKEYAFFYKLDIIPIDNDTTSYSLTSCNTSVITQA", "test": "ELISA, mAb 0.001-100 ug/ml on coated V1V2 scaffold, OD450"}, "[11]": {"molecular_target": "T8, gp70 B.HXB2/BALV1V2/N156QN160Q (murine leukemia virus; HIV-1)", "T8 chain": "T7 chain with N311Q, N315Q", "test": "ELISA, mAb 0.001-100 ug/ml on coated V1V2 scaffold, OD450"}, "[12]": {"molecular_target": "T9, J08 B.HXB2/BALV1V2 (HIV-1)", "T9 construct": "also called J08 B.HXB/BAL V1V2", "T9 chain": "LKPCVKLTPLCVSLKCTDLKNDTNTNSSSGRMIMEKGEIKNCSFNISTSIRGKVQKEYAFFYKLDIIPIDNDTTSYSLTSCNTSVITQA", "test": "ELISA, mAb 0.001-100 ug/ml on coated V1V2 scaffold, OD450"}, "[13]": {"molecular_target": "T10, J08 B.HXB2/BALV1V2N156QN160Q (HIV-1)", "T10 chain": "T9 chain with N41Q, N45Q", "test": "ELISA, mAb 0.001-100 ug/ml on coated V1V2 scaffold, OD450"}},
  "note": "Positions count from the first letter of the chain named.",
  "data": [
    {"binder": "B1", "values": [
      {"measurement": "EC50", "setting": "[1]", "result": 0.04, "unit": "µg/mL"}
    ]},
    {"binder": "B2", "values": [
      {"measurement": "binding result", "setting": "[2]", "result": "no binding (tested: 10 ug/ml)"},
      {"measurement": "binding result", "setting": "[3]", "result": "no binding (tested: 10 ug/ml)"},
      {"measurement": "binding result", "setting": "[4]", "result": "no binding (tested: 10 ug/ml)"}
    ]},
    {"binder": "B3", "values": [
      {"measurement": "binding result", "setting": "[5]", "result": "no binding (tested: 10 ug/ml)"},
      {"measurement": "binding result", "setting": "[6]", "result": "no binding (tested: 10 ug/ml)"},
      {"measurement": "binding result", "setting": "[7]", "result": "no binding (tested: 10 ug/ml)"},
      {"measurement": "binding result", "setting": "[8]", "result": "no binding (tested: 10 ug/ml)"},
      {"measurement": "binding result", "setting": "[9]", "result": "no binding (tested: 100 ug/ml)"},
      {"measurement": "binding result", "setting": "[10]", "result": "no binding (tested: 100 ug/ml)"},
      {"measurement": "binding result", "setting": "[11]", "result": "no binding (tested: 100 ug/ml)"},
      {"measurement": "binding result", "setting": "[12]", "result": "no binding (tested: 100 ug/ml)"},
      {"measurement": "binding result", "setting": "[13]", "result": "no binding (tested: 100 ug/ml)"}
    ]}
  ]
}
